Experimental data: US20130046081A1 (SHANGHAI BIOMABS PHARMACEUTICALS, published 2013)

Biological target: T1, Recombinant Human VEGF165 Protein (human, UniProt P15692-4 27-191)
T1 construct: Bought protein (R&D)
Assay: SPR (Biacore T100), VEGF165 amine-coupled to the chip, antibody in solution
Protocol: Affinity constant of VEGF antibody was detected using Biacore T100 system (Biacore AB, Uppsala, Sweden). VEGF165 (R&D) was covalently linked to CMS biological sensor chips (Biacore) by amino-coupling. […] After each examination, they were washed with 5 μl of 50 mM hydrochloric acid aqueous solution at a flow rate of 3 μl/min so as to wash away the residual antibodies from the immobilized ligands. The binding curves were subjected to nonlinear regression analysis using BIAevalution software (T100 evalution version 2.0, Biacore).

T1 sequence (P15692 other isoform, or with tags, fused parts or gaps limits assumed): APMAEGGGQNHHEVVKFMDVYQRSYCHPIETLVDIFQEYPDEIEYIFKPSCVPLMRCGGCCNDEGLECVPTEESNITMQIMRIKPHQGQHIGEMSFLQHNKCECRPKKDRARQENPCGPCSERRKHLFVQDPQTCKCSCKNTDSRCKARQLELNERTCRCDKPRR

B1: fully human anti-VEGF antibody 11A7 (antibody, human IgG1, kappa, V domains shown)
VH: QVQLVQSGAEVKKPGASVKVSCKASGYTFTSYDINWVRQATGQGLEWMGWMNPNSGNTGYAQKFQGRVTMTRNTSISTAYMELSSLRSEDTAVYYCARGGYSSSWYYWYFDLWGRGTLVTVSS
VL: DIQMTQSPSSLSASVGDRVTITCRASQGIRNDLGWYQQKPGKAPKRLIYAASSLQSGVPSRFSGSGSGTEFTLTISSLQPEDFATYYCLQHNSYPPVYTFGQGTKLEIKR
notes: The genes carried a signal peptide at the 5' end; also called fully human antibody 11A7
Kd: 0.86 nM | koff: 7.1e-05 s⁻¹ | kon: 82400 M⁻¹ s⁻¹
